Results reported in publication PMC5416842, “The ribosome biogenesis factor yUtp23/hUTP23 coordinates key interactions in the yeast and human pre-40S particle and hUTP23 contains an essential PIN domain” (Nucleic Acids Research, 2017).

B1: GST-tagged human hUTP23 (natural protein, UniProt Q9BRU9 1-249, looked up)
chain: MKITRQKHAKKHLGFFRNNFGVREPYQILLDGTFCQAALRGRIQLREQLPRYLMGETQLCTTRCVLKELETLGKDLYGAKLIAQKCQVRNCPHFKNAVSGSECLLSMVEEGNPHHYFVATQDQNLSVKVKKKPGVPLMFIIQNTMVLDKPSPKTIAFVKAVESGQLVSVHEKESIKHLKEEQGLVKNTEQSRRKKRKKISGPNPLSCLKKKKKAPDTQSSASEKKRKRKRIRNRSNPKVLSEKQNAEGE
notes: hUTP23, human; open reading frame amplified from human cDNA; also called GST-hUTP23
B2: protein-A-His-tagged yUtp23 (natural protein, S. cerevisiae, UniProt Q12339 1-254, looked up)
chain: MRQKRAKSYRKQLLVYSHTFKFREPYQVLVDNQLVLECNNSNFNLPSGLKRTLQADVKVMITQCCIQALYETRNDGAINLAKQFERRRCNHSFKDPKSPAECIESVVNISGANKHRYVVASQDIDLRRKLRTVPGVPLIHLTRSVMVMEPLSTASAKASKITEEQKLYKGLNDPNIEKLQESGDGSGKESITKKRKLGPKAPNPLSVKKKKKVNSPSDEVKDKEDTSKEKKKRRRRKHKSNTNVPVSNGTTAAQ
notes: yUtp23, S. cerevisiae; open reading frame amplified from yeast genomic DNA
B3: GST-tagged yeast yUtp24 (natural protein, S. cerevisiae, UniProt Q05498 1-189, looked up)
chain: MGKAKKTRKFGLVKRTLNTKKDQRLKKNQENIKTKEDPELTRNIPQVSSALFFQYNQAIKPPYQVLIDTNFINFSIQKKVDIVRGMMDCLLAKCNPLITDCVMAELEKLGPKYRIALKLARDPRIKRLSCSHKGTYADDCLVHRVLQHKCYIVATNDAGLKQRIRKIPGIPLMSVGGHAYVIEKLPDVF
notes: yUtp24/Fcf1, S. cerevisiae; open reading frame amplified from yeast genomic DNA; also called Fcf1; yUtp24(Fcf1)
B4: N-terminally His-tagged hUTP24 (natural protein, human, UniProt Q9Y324 1-198, looked up)
chain: MGKQKKTRKYATMKRMLSLRDQRLKEKDRLKPKKKEKKDPSALKEREVPQHPSCLFFQYNTQLGPPYHILVDTNFINFSIKAKLDLVQSMMDCLYAKCIPCITDCVMAEIEKLGQKYRVALRIAKDPRFERLPCTHKGTYADDCLVQRVTQHKCYIVATVDRDLKRRIRKIPGVPIMYISNHRYNIERMPDDYGAPRF
notes: hUTP24 (human homologue of yUtp24/Fcf1); open reading frame amplified from human cDNA; not shown: His tag, N-terminal, kept
B5: N-terminally His-tagged hNHP2 (natural protein, human, UniProt Q9NX24 1-153, looked up)
chain: MTKIKADPDGPEAQAEACSGERTYQELLVNQNPIAQPLASRRLTRKLYKCIKKAVKQKQIRRGVKEVQKFVNKGEKGIMVLAGDTLPIEVYCHLPVMCEDRNLPYVYIPSKTDLGAAAGSKRPTCVIMVKPHEEYQEAYDECLEEVQSLPLPL
notes: core box H/ACA protein hNHP2, human; open reading frame amplified from human cDNA; not shown: His tag, N-terminal, kept

Assays:
[1] = biological target: T1, GST-yUtp23 WT (Saccharomyces cerevisiae) (UniProt Q12339); test: EMSA; details: EMSA: 10 mM Tris/HCl pH 7.6, 75 mM NaCl, 2 mM DTT, 100 ng/ul BSA, 0.8 U/ul RNasin, 4.5% glycerol, 0.05% Tween20, 500 ng/ul E. coli tRNA; 10 min 30 C then 10 min
T1 sequence: B2 chain

[2] = test system: GST-yUtp23 WT (Saccharomyces cerevisiae); test: EMSA; details: 100-1000 nM protein; EMSA: 10 mM Tris/HCl pH 7.6, 75 mM NaCl, 2 mM DTT, 100 ng/ul BSA, 0.8 U/ul RNasin, 4.5% glycerol, 0.05% Tween20, 500 ng/ul E. coli tRNA; 10 min 30 C then 10 min
[3] = biological target: T1, GST-yUtp23 WT (Saccharomyces cerevisiae); test: competition; details: EMSA: 10 mM Tris/HCl pH 7.6, 75 mM NaCl, 2 mM DTT, 100 ng/ul BSA, 0.8 U/ul RNasin, 4.5% glycerol, 0.05% Tween20, 500 ng/ul E. coli tRNA; 10 min 30 C then 10 min
[4] = biological target: T2, N-terminally His-tagged hRRP7 (human, UniProt Q9Y3A4 1-280); test: pull-down; GST-tagged hUTP23 immobilised on glutathione sepharose (pre-blocked with BSA), incubated with N-terminally His-tagged recombinant human proteins for 1 h at 4°C in Buffer NB (20 mM Tris/HCl pH 7.6, 150 mM NaCl, 8.7% glycerol, 0.1% Tween20); five washes; SDS-PAGE, immunoblotting with anti-His and anti-GST antibodies; details: both partners purified
T2 construct: hRRP7, human; open reading frame amplified from human cDNA; The legend says that C-terminally truncated forms of the His-tagged hRRP7 protein were also present in the preparation; not shown: His tag, N-terminal, kept
T2 sequence (looked up): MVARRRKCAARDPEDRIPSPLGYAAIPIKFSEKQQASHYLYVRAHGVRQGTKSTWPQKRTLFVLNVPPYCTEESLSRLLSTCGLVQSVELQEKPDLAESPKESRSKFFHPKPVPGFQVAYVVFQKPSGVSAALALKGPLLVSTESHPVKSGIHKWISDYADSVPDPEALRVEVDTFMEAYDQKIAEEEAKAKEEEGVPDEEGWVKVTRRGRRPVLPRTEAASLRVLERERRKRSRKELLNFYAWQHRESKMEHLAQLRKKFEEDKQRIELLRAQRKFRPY

GST-tagged yeast yRrp7 = biological target: T3, GST-tagged yeast yRrp7 (S. cerevisiae, UniProt P25368 1-297); test: pull-down; GST-tagged yeast bait proteins immobilised on glutathione sepharose (pre-blocked with BSA), incubated with recombinant protein-A-His-tagged yUtp23 for 1 h at 4°C in Buffer NB (20 mM Tris/HCl pH 7.6, 150 mM NaCl, 8.7% glycerol, 0.1% Tween20); five washes; SDS-PAGE, Coomassie staining; details: both partners purified
T3 construct: yRrp7, S. cerevisiae; open reading frame amplified from yeast genomic DNA; also called GST-yRrp7
T3 sequence (looked up): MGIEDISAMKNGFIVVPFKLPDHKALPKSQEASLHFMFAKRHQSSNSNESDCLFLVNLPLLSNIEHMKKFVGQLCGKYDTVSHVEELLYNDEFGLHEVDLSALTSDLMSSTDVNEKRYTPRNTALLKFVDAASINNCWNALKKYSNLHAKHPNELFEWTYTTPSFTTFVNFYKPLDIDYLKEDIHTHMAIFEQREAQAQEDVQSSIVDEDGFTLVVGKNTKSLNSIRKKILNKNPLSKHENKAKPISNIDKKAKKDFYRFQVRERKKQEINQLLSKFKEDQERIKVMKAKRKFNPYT

GST-tagged yeast yUtp23 = biological target: T4, GST-tagged yeast yUtp23 (S. cerevisiae, UniProt Q12339 1-254); test: as above; details: both partners purified
T4 construct: yUtp23, S. cerevisiae; open reading frame amplified from yeast genomic DNA; also called GST-yUtp23
T4 sequence (looked up): B2 chain

[5] = biological target: B2; test: as above; details: both partners purified
GST-tagged human hUTP23 = biological target: B1; test: pull-down; GST-tagged hUTP23 immobilised on glutathione sepharose (pre-blocked with BSA), incubated with N-terminally His-tagged recombinant human proteins for 1 h at 4°C in Buffer NB (20 mM Tris/HCl pH 7.6, 150 mM NaCl, 8.7% glycerol, 0.1% Tween20); five washes; SDS-PAGE, immunoblotting with anti-His and anti-GST antibodies; details: both partners purified

“GGGUAGGACGCAUGAUCUUGAGCUCUUUUCCUAUACUUUGUCCUAUGGCCAGCUUUCUCCUUAUUACGAAGAGAUUGCGGGAUGUGGGUGCAGAGUGGGAAAAUCUGAGUUCGGUCAUCUUUGUUGUUCGUCCUAC [snR30 IH (nt 398-531)]” was tested, and the binding [1] was “no binding”.

In the case of snR30 full length (nt 1-606), the Kd [2] is reported as 300 nM.

With “GGCCGCAGUAUAUUCCUAAACACUAUGAAAUGACCCUAGUUGGUCCAUGAUCAUUUGGGUAAAACCAUACUGCAGACAUCU [snR30 3' HP (nt 531-606)]” the binding [1] was “no binding”.

In the case of “GGCGUAUUGCUCGAAUAUAUUAGCAUGGAAUAAUAGAAUAGGACGUUUGGUUCUAUUUUGUUGGUUUCUAGGACCAUCGUAAUGAUUAAUAGGGACGGUCGGGGGCAUCAGUAUUCAAUUGUCAGAGGUGAAAUUCUUGGAUUUAUUGAAGACUAACUACUGCGAAAGCAUUUGCCAAGGACGUUUUCA [18S rRNA ES6 fragment (nt 775-963, RNA A)]”, the binding [3] is reported as “binds”.

With “GGGUAGGACGCAUGAUCUUGAGCUCUUUUCCUAUACUUUGUCCUAUGGCCAGCUUUCUCCUUAUUACGAAGAGAUUGCGGGAUGUGGGUGCAGAGUGGGAAAAUCUGAGUUCGGUCAUCUUUGUUGUUCGUCCUACCGCAGUAUAUUCCUAAACACUAUGAAAUGACCCUAGUUGGUCCAUGAUCAUUUGGGUAAAACCAUACUGCAGACAUCU [snR30 IH + 3' HP (nt 398-606)]” the binding [1] was “binds more weakly”.

B1: binds [4].

B2: binds (GST-tagged yeast yRrp7); binds (GST-tagged yeast yUtp23).

B3: binds [5].

B4: binds (GST-tagged human hUTP23).

B5: binds (GST-tagged human hUTP23).
